Drawing on article PMC10576006 (2023), this text covers Kd for 1 molecule.

Experiment [1] addresses T1, human wildtype KRas4B 1-169 (C-terminal truncated) (human, UniProt P01116-2 1-169). Briefly: BLI; 1:2 bivalent model. Background: In BLI a coated tip is dipped into the sample, and binding shifts an interference pattern.
Experiment [2] has as its target T1, human wildtype KRas4B 1-169 (C-terminal …). Briefly: BLI; 2:1 heterogeneous model, binding type 2 (69-99 %).

B1: GST-Rgl2^RA (Ras association domain of human Rgl2, residues 643-740, fused with GST) (domain or fragment)
chain: GPGASDCRIIRVQMELGEDGSVYKSILVTSQDKAPSVISRVLKKNNRDSAVASEYELVQLLPGERELTIPASANVFYAMDGASHDFLLRQRRRSSTAT
With B1, the values for the Kd in experiment [1] and in experiment [2] were 48.2 µM and 1.62 µM, respectively.
